B1: PCMTD2 (parent)
chain: FFIRTSDSFDKFDFCEPSFVTGNC

Variants of: B1
Test: protein stability index of a GFP-peptide fusion (GPS, HEK-293T) (PSI 1-6); higher = more stable
Settings: c terminus: a fixed tail appended
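Also: lentivirally expressed fusions sorted by FACS into six bins by GFP to DsRed ratio, PSI derived from sequencing read proportions per bin multiplied by bin number.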

Row | Variant | protein stability index
1 | FFIRTYDSFDKFDFCEPSFVTGNC [S6Y] | 2.48
2 | FFIRTTDSFDKFDFCEPSFVTGNC [S6T] | 3.34
3 | FFIRTCDSFDKFDFCEPSFVTGNC [S6C] | 1.99
4 | FFIRTADSFDKFDFCEPSFVTGNC [S6A] | 2.04
5 | FFIRTQDSFDKFDFCEPSFVTGNC [S6Q] | 3.19
6 | FFIRTFDSFDKFDFCEPSFVTGNC [S6F] | 2.43
7 | FFIRTMDSFDKFDFCEPSFVTGNC [S6M] | 2.53
8 | FFIRTDDSFDKFDFCEPSFVTGNC [S6D] | 3.28
9 | FFIRTGDSFDKFDFCEPSFVTGNC [S6G] | 2.33
10 | FFIRTIDSFDKFDFCEPSFVTGNC [S6I] | 2.29
11 | FFIRTWDSFDKFDFCEPSFVTGNC [S6W] | 2.61
12 | FFIRTHDSFDKFDFCEPSFVTGNC [S6H] | 2.91
13 | FFIRTPDSFDKFDFCEPSFVTGNC [S6P] | 2.53
14 | FFIRTRDSFDKFDFCEPSFVTGNC [S6R] | 3.11
15 | FFIRTKDSFDKFDFCEPSFVTGNC [S6K] | 2.59
16 | FFIRTEDSFDKFDFCEPSFVTGNC [S6E] | 1.99
17 | FFIRTVDSFDKFDFCEPSFVTGNC [S6V] | 2.23
18 | FFIRTNDSFDKFDFCEPSFVTGNC [S6N] | 3.26
19 | FFIRTSCSFDKFDFCEPSFVTGNC [D7C] | 2.8
20 | FFIRTSSSFDKFDFCEPSFVTGNC [D7S] | 3.69
21 | FFIRTSVSFDKFDFCEPSFVTGNC [D7V] | 2.77
22 | FFIRTSTSFDKFDFCEPSFVTGNC [D7T] | 3.2
23 | FFIRTSISFDKFDFCEPSFVTGNC [D7I] | 3.18
24 | FFIRTSNSFDKFDFCEPSFVTGNC [D7N] | 2.56

Row | Variant | protein stability index
25 | FFIRTSASFDKFDFCEPSFVTGNC [D7A] | 2.62
26 | FFIRTSLSFDKFDFCEPSFVTGNC [D7L] | 2.31
27 | FFIRTSHSFDKFDFCEPSFVTGNC [D7H] | 1.69
28 | FFIRTSFSFDKFDFCEPSFVTGNC [D7F] | 3.74
29 | FFIRTSWSFDKFDFCEPSFVTGNC [D7W] | 3.44
30 | FFIRTSKSFDKFDFCEPSFVTGNC [D7K] | 1.88
31 | FFIRTSGSFDKFDFCEPSFVTGNC [D7G] | 2.55
32 | FFIRTSRSFDKFDFCEPSFVTGNC [D7R] | 1.98
33 | FFIRTSESFDKFDFCEPSFVTGNC [D7E] | 3.48
34 | FFIRTSYSFDKFDFCEPSFVTGNC [D7Y] | 2.41
35 | FFIRTSDQFDKFDFCEPSFVTGNC [S8Q] | 3.03
36 | FFIRTSDLFDKFDFCEPSFVTGNC [S8L] | 3.06
37 | FFIRTSDHFDKFDFCEPSFVTGNC [S8H] | 3.25
38 | FFIRTSDKFDKFDFCEPSFVTGNC [S8K] | 1.72
39 | FFIRTSDNFDKFDFCEPSFVTGNC [S8N] | 2.13
40 | FFIRTSDCFDKFDFCEPSFVTGNC [S8C] | 3.14
41 | FFIRTSDIFDKFDFCEPSFVTGNC [S8I] | 2.54
42 | FFIRTSDPFDKFDFCEPSFVTGNC [S8P] | 2.35
43 | FFIRTSDRFDKFDFCEPSFVTGNC [S8R] | 2.44
44 | FFIRTSDWFDKFDFCEPSFVTGNC [S8W] | 4
45 | FFIRTSDDFDKFDFCEPSFVTGNC [S8D] | 1.95
46 | FFIRTSDEFDKFDFCEPSFVTGNC [S8E] | 1.91
47 | FFIRTSDYFDKFDFCEPSFVTGNC [S8Y] | 3.02
48 | FFIRTSDAFDKFDFCEPSFVTGNC [S8A] | 2.85

Row | Variant | protein stability index
49 | FFIRTSDTFDKFDFCEPSFVTGNC [S8T] | 1.61
50 | FFIRTSDVFDKFDFCEPSFVTGNC [S8V] | 4.76
51 | FFIRTSDFFDKFDFCEPSFVTGNC [S8F] | 2.38
52 | FFIRTSDMFDKFDFCEPSFVTGNC [S8M] | 1.94
53 | FFIGTSDSFDKFDFCEPSFVTGNC [R4G] | 1.31
54 | FFIITSDSFDKFDFCEPSFVTGNC [R4I] | 1.55
55 | FFIATSDSFDKFDFCEPSFVTGNC [R4A] | 3.21
56 | FFIETSDSFDKFDFCEPSFVTGNC [R4E] | 2.12
57 | FFIDTSDSFDKFDFCEPSFVTGNC [R4D] | 2.08
58 | FFIVTSDSFDKFDFCEPSFVTGNC [R4V] | 2.33
59 | FFIWTSDSFDKFDFCEPSFVTGNC [R4W] | 4.04
60 | FFITTSDSFDKFDFCEPSFVTGNC [R4T] | 3.27
61 | FFIKTSDSFDKFDFCEPSFVTGNC [R4K] | 1.99
62 | FFIPTSDSFDKFDFCEPSFVTGNC [R4P] | 1.85
63 | FFISTSDSFDKFDFCEPSFVTGNC [R4S] | 2.39
64 | FFIQTSDSFDKFDFCEPSFVTGNC [R4Q] | 1.74
65 | FFIFTSDSFDKFDFCEPSFVTGNC [R4F] | 2.52
66 | FFILTSDSFDKFDFCEPSFVTGNC [R4L] | 2.8
67 | FFIHTSDSFDKFDFCEPSFVTGNC [R4H] | 2.45
68 | FFINTSDSFDKFDFCEPSFVTGNC [R4N] | 1.65
69 | FFIYTSDSFDKFDFCEPSFVTGNC [R4Y] | 2.93
70 | FFICTSDSFDKFDFCEPSFVTGNC [R4C] | 3.1
71 | FFIMTSDSFDKFDFCEPSFVTGNC [R4M] | 4.34
72 | FFIRTSDSADKFDFCEPSFVTGNC [F9A] | 1.95

Row | Variant | protein stability index
73 | FFIRTSDSYDKFDFCEPSFVTGNC [F9Y] | 2.82
74 | FFIRTSDSKDKFDFCEPSFVTGNC [F9K] | 2.16
75 | FFIRTSDSRDKFDFCEPSFVTGNC [F9R] | 1.7
76 | FFIRTSDSGDKFDFCEPSFVTGNC [F9G] | 2.53
77 | FFIRTSDSVDKFDFCEPSFVTGNC [F9V] | 1.75
78 | FFIRTSDSLDKFDFCEPSFVTGNC [F9L] | 2.12
79 | FFIRTSDSCDKFDFCEPSFVTGNC [F9C] | 2.04
80 | FFIRTSDSWDKFDFCEPSFVTGNC [F9W] | 2.6
81 | FFIRTSDSQDKFDFCEPSFVTGNC [F9Q] | 1.92
82 | FFIRTSDSPDKFDFCEPSFVTGNC [F9P] | 1.28
83 | FFIRTSDSHDKFDFCEPSFVTGNC [F9H] | 2.24
84 | FFIRTSDSEDKFDFCEPSFVTGNC [F9E] | 1.9
85 | FFIRTSDSNDKFDFCEPSFVTGNC [F9N] | 2.18
86 | FFIRTSDSIDKFDFCEPSFVTGNC [F9I] | 2.47
87 | FFIRTSDSTDKFDFCEPSFVTGNC [F9T] | 1.7
88 | FFIRTSDSSDKFDFCEPSFVTGNC [F9S] | 1.66
89 | FFIRTSDSDDKFDFCEPSFVTGNC [F9D] | 2.03
90 | FFIRTSDSMDKFDFCEPSFVTGNC [F9M] | 2.99
91 | FFIRFSDSFDKFDFCEPSFVTGNC [T5F] | 2.61
92 | FFIRNSDSFDKFDFCEPSFVTGNC [T5N] | 1.75
93 | FFIRWSDSFDKFDFCEPSFVTGNC [T5W] | 2.53
94 | FFIRKSDSFDKFDFCEPSFVTGNC [T5K] | 2.38
